For data set [1], the target named is c-Src SH2. The data set can be described thus: SH2 binding enrichment of the phosphorylated peptide, bacterial display (enrichment ratio); higher = better substrate or ligand; peptides without Tyr show the background.
For data set [2], the target named is SHP2-C SH2. The description is as above.
The target of data set [3] is Grb2 SH2 (UniProt P62993). The description is as above.
Data set [4] addresses EPHB1 (UniProt P54762). The data set can be described thus: phosphorylation enrichment, bacterial display (enrichment ratio); higher = better substrate or ligand; peptides without Tyr show the background.
The target of data set [5] is FGFR1 (UniProt P11362). The description is as above.
Data set [6] concerns the target FGFR3 (UniProt P22607). The data set is described as above.
For data set [7], the system named is c-Src. Described as above.
Data set [8] concerns c-Abl (mouse). The description is as above.
Data set [9] deals with EPHB2 (UniProt P29323). The description is as above.
In data set [10] the target is Fyn (UniProt P06241). Described as above.
Data set [11] concerns Fer (mouse). The data set is described as above.
In data set [12] the target is Jak2 (UniProt O60674). The data set is described as above.
The target in data set [13] is MERTK (UniProt Q12866). The data set is described as above.
Data set [14] deals with AncSZ. Described as above.
The target in data set [15] is Hck (UniProt P08631). The data set is described as above.
The target in data set [16] is Fes (UniProt P07332). Described as above.
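Throughout, for SH2 binding enrichment of the phosphorylated peptide, bacterial display: peptide library displayed on the E. coli surface as eCPX fusions, selected cells deep-sequenced, score is each peptide's frequency after selection divided by its frequency in the input.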
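Throughout, for phosphorylation enrichment, bacterial display: 11-residue human phosphosite peptides and single-mutation variants displayed on the E. coli surface, counted by deep sequencing, each peptide's frequency after selection divided by its frequency in the unselected input library; frequency after pTyr selection over input frequency; kinase dosed for 20-30% of maximal phosphorylation in three min.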

Sequence of Jak2 (O60674 whole entry, looked up): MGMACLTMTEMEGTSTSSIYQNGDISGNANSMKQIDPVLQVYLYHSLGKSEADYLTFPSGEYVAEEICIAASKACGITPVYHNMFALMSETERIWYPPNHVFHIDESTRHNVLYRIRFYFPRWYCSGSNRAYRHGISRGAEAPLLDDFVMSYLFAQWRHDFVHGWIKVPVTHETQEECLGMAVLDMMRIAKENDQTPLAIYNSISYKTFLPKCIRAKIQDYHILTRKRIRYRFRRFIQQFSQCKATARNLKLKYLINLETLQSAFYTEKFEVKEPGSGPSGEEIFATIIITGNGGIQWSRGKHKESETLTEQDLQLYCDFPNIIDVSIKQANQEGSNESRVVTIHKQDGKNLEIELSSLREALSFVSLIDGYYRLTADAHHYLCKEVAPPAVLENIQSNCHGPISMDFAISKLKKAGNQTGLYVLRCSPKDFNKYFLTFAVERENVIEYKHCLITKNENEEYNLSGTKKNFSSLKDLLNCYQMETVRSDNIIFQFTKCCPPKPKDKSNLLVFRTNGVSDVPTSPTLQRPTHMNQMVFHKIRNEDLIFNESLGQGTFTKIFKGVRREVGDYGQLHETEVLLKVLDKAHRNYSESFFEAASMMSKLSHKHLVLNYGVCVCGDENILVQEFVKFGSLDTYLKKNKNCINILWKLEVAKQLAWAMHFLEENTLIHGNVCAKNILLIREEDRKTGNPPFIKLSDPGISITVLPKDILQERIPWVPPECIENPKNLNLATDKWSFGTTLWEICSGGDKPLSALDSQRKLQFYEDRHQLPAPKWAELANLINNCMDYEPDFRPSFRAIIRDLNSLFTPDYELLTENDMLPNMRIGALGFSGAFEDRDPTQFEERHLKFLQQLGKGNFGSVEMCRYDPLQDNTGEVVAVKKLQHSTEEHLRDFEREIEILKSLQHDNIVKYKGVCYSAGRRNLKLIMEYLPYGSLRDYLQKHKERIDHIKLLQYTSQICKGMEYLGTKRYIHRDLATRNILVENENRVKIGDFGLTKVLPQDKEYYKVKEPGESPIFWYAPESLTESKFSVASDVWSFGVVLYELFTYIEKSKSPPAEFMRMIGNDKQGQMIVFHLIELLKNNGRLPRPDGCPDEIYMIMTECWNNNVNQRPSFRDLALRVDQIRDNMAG
Sequence of Grb2 SH2 (P62993 whole entry, looked up): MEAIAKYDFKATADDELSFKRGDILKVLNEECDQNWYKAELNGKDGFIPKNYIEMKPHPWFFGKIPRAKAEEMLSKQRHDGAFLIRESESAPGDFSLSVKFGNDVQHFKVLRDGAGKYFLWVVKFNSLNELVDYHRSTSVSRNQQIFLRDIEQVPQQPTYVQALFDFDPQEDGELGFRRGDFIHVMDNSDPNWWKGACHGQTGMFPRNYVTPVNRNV
Sequence of FGFR3 (P22607 whole entry, looked up): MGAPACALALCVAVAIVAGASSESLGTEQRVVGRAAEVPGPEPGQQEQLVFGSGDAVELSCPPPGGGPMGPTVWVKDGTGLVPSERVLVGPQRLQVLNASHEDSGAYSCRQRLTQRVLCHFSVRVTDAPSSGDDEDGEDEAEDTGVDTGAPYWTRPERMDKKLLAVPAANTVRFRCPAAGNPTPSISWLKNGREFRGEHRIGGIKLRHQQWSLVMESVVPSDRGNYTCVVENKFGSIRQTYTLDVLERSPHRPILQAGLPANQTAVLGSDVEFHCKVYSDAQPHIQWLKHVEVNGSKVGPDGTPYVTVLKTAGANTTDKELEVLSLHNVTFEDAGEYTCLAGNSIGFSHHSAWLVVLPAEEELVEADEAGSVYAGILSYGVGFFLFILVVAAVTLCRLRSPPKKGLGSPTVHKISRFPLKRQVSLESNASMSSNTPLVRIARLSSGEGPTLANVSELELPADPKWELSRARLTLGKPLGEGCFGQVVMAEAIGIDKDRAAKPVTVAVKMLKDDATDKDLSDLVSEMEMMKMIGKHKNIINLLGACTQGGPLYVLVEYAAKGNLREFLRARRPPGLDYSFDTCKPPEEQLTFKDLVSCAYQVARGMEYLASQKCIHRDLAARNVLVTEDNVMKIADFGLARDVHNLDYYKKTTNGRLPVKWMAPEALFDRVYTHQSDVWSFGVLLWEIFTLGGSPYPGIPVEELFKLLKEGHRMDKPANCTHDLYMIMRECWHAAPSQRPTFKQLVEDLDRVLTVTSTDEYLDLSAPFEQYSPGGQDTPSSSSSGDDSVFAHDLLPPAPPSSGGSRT
Sequence of FGFR1 (P11362 whole entry, looked up): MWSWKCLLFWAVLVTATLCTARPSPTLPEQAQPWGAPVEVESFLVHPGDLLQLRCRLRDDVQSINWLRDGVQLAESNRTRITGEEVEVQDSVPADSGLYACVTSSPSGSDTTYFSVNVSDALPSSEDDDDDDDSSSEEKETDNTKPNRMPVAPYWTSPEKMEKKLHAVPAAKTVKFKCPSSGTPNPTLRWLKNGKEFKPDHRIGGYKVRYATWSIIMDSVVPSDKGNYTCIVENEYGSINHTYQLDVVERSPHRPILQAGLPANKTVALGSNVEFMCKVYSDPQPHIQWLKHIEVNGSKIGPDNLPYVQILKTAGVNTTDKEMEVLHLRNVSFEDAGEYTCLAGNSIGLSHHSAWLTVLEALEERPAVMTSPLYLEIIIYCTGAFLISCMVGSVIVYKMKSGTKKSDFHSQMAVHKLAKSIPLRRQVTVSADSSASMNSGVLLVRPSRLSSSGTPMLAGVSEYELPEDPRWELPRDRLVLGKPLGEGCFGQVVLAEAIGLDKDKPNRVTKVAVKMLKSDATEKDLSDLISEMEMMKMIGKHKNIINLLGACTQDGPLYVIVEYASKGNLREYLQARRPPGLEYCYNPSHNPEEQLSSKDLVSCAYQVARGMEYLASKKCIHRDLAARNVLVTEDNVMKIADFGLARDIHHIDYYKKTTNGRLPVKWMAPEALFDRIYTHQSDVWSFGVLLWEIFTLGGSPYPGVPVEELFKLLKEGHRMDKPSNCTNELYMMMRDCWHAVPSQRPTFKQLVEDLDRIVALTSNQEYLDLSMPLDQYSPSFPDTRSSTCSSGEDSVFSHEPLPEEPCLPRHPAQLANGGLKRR
Sequence of EPHB1 (P54762 whole entry, looked up): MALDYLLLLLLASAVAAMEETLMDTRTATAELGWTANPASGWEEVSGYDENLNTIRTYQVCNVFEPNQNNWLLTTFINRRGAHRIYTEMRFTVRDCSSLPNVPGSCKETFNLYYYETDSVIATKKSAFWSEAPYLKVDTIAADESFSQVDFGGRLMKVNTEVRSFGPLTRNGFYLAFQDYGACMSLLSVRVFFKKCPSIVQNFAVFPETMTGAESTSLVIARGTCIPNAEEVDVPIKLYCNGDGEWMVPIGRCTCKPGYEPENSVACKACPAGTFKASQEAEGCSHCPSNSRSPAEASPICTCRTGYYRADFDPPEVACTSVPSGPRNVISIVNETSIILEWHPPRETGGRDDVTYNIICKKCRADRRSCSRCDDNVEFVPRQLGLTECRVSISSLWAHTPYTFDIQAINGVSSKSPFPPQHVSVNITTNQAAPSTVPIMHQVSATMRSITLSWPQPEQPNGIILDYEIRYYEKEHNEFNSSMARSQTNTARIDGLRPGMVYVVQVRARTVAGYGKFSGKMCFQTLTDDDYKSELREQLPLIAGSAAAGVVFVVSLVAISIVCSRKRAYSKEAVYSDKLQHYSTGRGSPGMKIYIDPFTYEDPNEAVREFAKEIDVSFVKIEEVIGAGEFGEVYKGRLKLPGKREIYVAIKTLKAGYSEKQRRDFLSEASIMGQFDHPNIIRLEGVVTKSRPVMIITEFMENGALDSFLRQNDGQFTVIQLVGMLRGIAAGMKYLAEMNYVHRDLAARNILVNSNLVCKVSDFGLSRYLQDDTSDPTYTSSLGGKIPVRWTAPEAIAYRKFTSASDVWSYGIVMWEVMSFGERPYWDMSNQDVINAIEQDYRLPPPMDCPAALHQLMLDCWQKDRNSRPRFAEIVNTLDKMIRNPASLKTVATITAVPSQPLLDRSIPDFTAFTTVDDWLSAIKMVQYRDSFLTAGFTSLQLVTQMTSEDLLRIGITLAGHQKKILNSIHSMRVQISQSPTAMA
Sequence of MERTK (Q12866 whole entry, looked up): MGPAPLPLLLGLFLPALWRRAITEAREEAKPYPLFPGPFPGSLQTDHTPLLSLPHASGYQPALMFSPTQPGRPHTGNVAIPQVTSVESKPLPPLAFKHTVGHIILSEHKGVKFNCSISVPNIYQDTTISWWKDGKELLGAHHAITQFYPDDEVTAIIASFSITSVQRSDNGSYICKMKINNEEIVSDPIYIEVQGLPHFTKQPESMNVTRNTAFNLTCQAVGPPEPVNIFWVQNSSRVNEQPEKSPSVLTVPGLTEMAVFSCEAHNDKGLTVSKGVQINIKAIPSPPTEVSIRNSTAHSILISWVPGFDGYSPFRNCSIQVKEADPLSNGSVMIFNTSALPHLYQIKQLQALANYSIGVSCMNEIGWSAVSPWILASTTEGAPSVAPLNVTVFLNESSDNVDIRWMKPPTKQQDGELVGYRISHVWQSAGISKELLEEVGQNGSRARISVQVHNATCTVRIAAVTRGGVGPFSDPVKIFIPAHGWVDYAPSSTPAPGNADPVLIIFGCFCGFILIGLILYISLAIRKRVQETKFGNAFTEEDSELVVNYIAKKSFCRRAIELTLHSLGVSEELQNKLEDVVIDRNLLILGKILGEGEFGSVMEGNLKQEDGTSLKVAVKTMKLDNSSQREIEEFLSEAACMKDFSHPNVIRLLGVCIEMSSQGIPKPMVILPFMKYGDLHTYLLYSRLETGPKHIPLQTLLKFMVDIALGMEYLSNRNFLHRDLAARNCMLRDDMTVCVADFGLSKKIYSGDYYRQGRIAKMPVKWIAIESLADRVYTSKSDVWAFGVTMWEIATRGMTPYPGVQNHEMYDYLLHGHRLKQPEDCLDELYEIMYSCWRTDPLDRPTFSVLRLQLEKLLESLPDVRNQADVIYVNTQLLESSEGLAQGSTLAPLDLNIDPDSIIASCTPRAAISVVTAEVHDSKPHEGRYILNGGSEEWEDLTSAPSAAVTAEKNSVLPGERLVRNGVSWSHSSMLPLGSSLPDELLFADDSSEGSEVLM

Consider SSQAHYRLSAF [ADAMTS9_Y100], for which the SH2 binding enrichment in data set [1] is 0.43; in [2] it was 0.721; in [3], 0.816. Also, the phosphorylation enrichment in data set [4] was found to be 0.452; in data set [5] it was 0.399; in [6], 0.584; in [7], 0.41; in [8], 0.481; in data set [9], 0.426. Moreover, the phosphorylation enrichment in data set [10] worked out at 0.449; in data set [11], 0.347; in [12], 0.482; in data set [13], 0.368; in data set [14], 0.65; in data set [15], 0.434. The phosphorylation enrichment in data set [16] is 0.584.
With SSSAIYDNPDL [DCP1B_Y191_N195D], the results for the SH2 binding enrichment in [1], in [2] and in [3] were 1.94, 0.621 and 0.667, respectively. Besides, the phosphorylation enrichment was 7.52 in data set [4]; 0.519 in data set [5]; 0.651 in data set [6]; 2.7 in data set [7]; 9.33 in data set [8]; 10.9 in data set [9]. The phosphorylation enrichment was 3.81 in [10]; 6.58 in data set [11]; 0.914 in [12]; 5.29 in data set [13]; 1.29 in data set [14]; 5.17 in [15]. Also, in data set [16], the phosphorylation enrichment was 1.07.
SSVAGYACLAY [MVD_Y131_A128V]: the SH2 binding enrichment in [1] was 2.24; in [2], 3; in data set [3] it was 0.777. Further, the phosphorylation enrichment in data set [4] came out at 0.564; in data set [5], 0.495; in data set [6], 0.701; in [7], 0.554; in data set [8], 0.768; in [9] it was 0.582. The phosphorylation enrichment worked out at 0.466 in data set [10]; 0.587 in data set [11]; 0.852 in data set [12]; 0.463 in data set [13]; 0.898 in [14]; 0.538 in data set [15]. Besides, the phosphorylation enrichment in data set [16] is 0.994.
Take SSYSGYIMMPN [LEF1_Y114]: the SH2 binding enrichment in data set [1] came to 1.99; in data set [2], 1; in [3] it was 0.905. The phosphorylation enrichment turned out to be 0.923 in data set [4]; 3.79 in [5]; 2.38 in data set [6]; 0.684 in data set [7]; 0.486 in data set [8]; 1.09 in data set [9]. For the same sequence, the phosphorylation enrichment amounted to 0.571 in [10]; 0.604 in data set [11]; 5.39 in data set [12]; 2.47 in data set [13]; 0.858 in data set [14]; 0.51 in data set [15]. In addition, in data set [16], the phosphorylation enrichment was 0.718.
As to STGRSYAGVAV [KLHL3_Y577], the figures for the SH2 binding enrichment in [1], in data set [2] and in data set [3] were 0.476, 0.837 and 0.878, respectively. Further, the phosphorylation enrichment came to 0.25 in data set [4]; 0.482 in [5]; 0.389 in data set [6]; 0.302 in data set [7]; 0.361 in data set [8]; 0.3 in [9]. Moreover, the phosphorylation enrichment amounted to 0.345 in data set [10]; 0.31 in data set [11]; 0.389 in [12]; 0.318 in data set [13]; 0.43 in [14]; 0.315 in [15]. For the same sequence, in data set [16], the phosphorylation enrichment came out at 0.466.
As to STSKTYVISRT [RBBP6_Y87], the figures for the SH2 binding enrichment in data set [1], in [2] and in data set [3] were 0.476, 0.758 and 0.74, respectively. Moreover, the phosphorylation enrichment in [4] was 0.387; in [5] it was 0.503; in data set [6] it was 0.498; in [7], 0.444; in data set [8], 0.423; in [9] it was 0.426. The phosphorylation enrichment in data set [10] came out at 0.416; in [11], 0.396; in data set [12], 0.527; in data set [13] it was 0.417; in data set [14], 0.628; in data set [15], 0.465. In data set [16], the phosphorylation enrichment came to 0.497.
As for SVCPDYDLCSI [SQSTM1_Y148_V153I], the SH2 binding enrichment in data set [1] amounted to 0.692; in data set [2], 0.733; in data set [3] it was 0.968. Besides, the phosphorylation enrichment was determined as 0.942 in data set [4]; 0.709 in [5]; 0.763 in [6]; 0.801 in [7]; 0.876 in [8]; 0.914 in [9]. Also, the phosphorylation enrichment amounted to 0.868 in [10]; 2.9 in data set [11]; 1.11 in [12]; 0.616 in data set [13]; 1.72 in data set [14]; 0.599 in data set [15]. Moreover, in data set [16], the phosphorylation enrichment came to 1.16.
With SVGVPYEPPEV [TP53_Y220_V217G], the SH2 binding enrichment in [1] was determined as 0.444; in data set [2], 0.861; in [3], 0.718. Further, the phosphorylation enrichment in data set [4] stood at 0.534; in [5], 0.523; in [6] it was 0.748; in data set [7], 0.509; in [8], 0.881; in data set [9], 0.57. Further, the phosphorylation enrichment came out at 0.545 in data set [10]; 0.585 in [11]; 1.09 in data set [12]; 0.485 in data set [13]; 1.16 in data set [14]; 0.577 in data set [15]. Besides, in data set [16], the phosphorylation enrichment was 1.29.
SVKVFYKKCWS [EPHA7_Y202_YF]: the SH2 binding enrichment in data set [1] stood at 0.396; in data set [2], 0.707; in [3], 0.747. The phosphorylation enrichment was 0.621 in [4]; 0.507 in data set [5]; 0.841 in [6]; 0.59 in [7]; 0.965 in data set [8]; 0.647 in [9]. Moreover, the phosphorylation enrichment amounted to 0.424 in [10]; 0.532 in data set [11]; 1.21 in data set [12]; 0.409 in data set [13]; 1.14 in [14]; 0.457 in [15]. In data set [16], the phosphorylation enrichment is 1.49.
